Experimental data published in patent publication US20240301031A1 (JIANGSU HENGRUI PHARMACEUTICALS, published 2024).
Positions count from the first letter of the chain named. Where two headings read alike, the source gives them in different places.

What was measured:
[1] = molecular target: T1, BAFF (ACROBiosystems, BAF-H5248) (UniProt Q9Y275 134-285); assay: ELISA, fusion protein coated, BAFF titrated, Anti-His-HRP
T1 construct: Bought protein used in the ELISA with coated test sample
Description: The binding activity of the TACI fusion proteins for BAFF and APRIL was assayed by the ELISA method (coating a test fusion protein sample). The specific procedures were as follows:
The test sample was diluted to 2 μg/mL with a PBS (BasalMedia, B320) buffer at pH 7.4 and added to a 96-well microplate (Corning, 3590) at 100 μL/well. The plate was incubated at 4° C. overnight. After the liquid was discarded, 300 μL of 5% skim milk (BD, 232100) diluted with PBS was added to each well for blocking, and the plate was incubated at 37° C. for 2 h. After the blocking was completed, the blocking solution was discarded, and the plate was washed 3 times with a PBST buffer (PBS at pH 7.4 containing 0.1% tween-20). 100 μL of BAFF (ACROBiosystems, BAF-H5248) or APRIL (R&D Systems, 5860-AP-010/CF) diluted in a gradient was added to each well, and the plate was incubated at 37° C. for 1 h. After the incubation, the plate was washed 3 times with PBST. When detecting the binding to BAFF, 100 μL of Anti-His-HRP (Sino biological, 105327-MM02T-H, diluted at a ratio of 1:2000) was added to each well; when detecting the binding to APRIL, 100 μL of anti-HA-HRP (Abcam, ab1190, diluted at a ratio of 1:4000) was added to each well. The plate was incubated at 37° C. for 1 h. The plate was washed 3 times with PBST. 100 μL of TMB chromogenic substrate (KPL, 5120-0077) was added to each well, and the plate was incubated at room temperature for 10-15 min. The reaction was stopped by adding 50 μL of 1 M H₂SO₄ to each well. The plate was read for absorbance values at 450 nm on a microplate reader, the binding curves of the antibodies to an antigen were fitted with software, and the EC₅₀ values were calculated.

[2] = molecular target: T2, human BAFF (10056-HNCH, Sino biological) (human, UniProt Q9Y275 134-285); assay: competition ELISA: biotin-labeled BAFF to coated BAFF-R
T2 construct: Bought protein
Description: The blocking activity of the antibodies and the fusion proteins for receptors and ligands such as BAFF/BAFF-R, BAFF/BCMA, BAFF/TACI, APRIL/BCMA, APRIL/TACI, and p40/IL-12R1 was assayed by the ELISA method. The specific procedures were as follows:
(§1) A receptor protein was diluted to 2 μg/mL with PBS at pH 7.4 (BasalMedia, B320) and added to a 96-well microplate (Corning, 3590) at 100 μL/well. The plate was incubated at 4° C. overnight. After the liquid was discarded, 200 μL of 1% Casein blocking solution (Thermo, 37528) was added to each well for blocking, and the plate was incubated at 37° C. for 2 h. After the blocking was completed, the blocking solution was discarded, and the plate was washed 3 times with a PBST buffer (PBS at pH 7.4 containing 0.1% tween-20) for later use. A biotin-labeled ligand protein at a fixed concentration was mixed with the antibody or fusion protein diluted in gradient, pre-incubated at 37° C. for 30 min, and added to a blocked microplate. The plate was incubated at 37° C. for 1.5 h. After the incubation was completed, the plate was washed 3 times with PBST. 100 μL of streptavidin-HRP (Invitrogen, 434323, diluted at a ratio of 1:4000) was added to each well, and the plate was incubated at 37° C. for 1 h. The supernatant was removed, and the plate was washed 3 times with PBST. 100 μL of TMB chromogenic substrate (KPL, 5120-0077) was added to each well, and the plate was incubated at room temperature for 10-15 min. The reaction was stopped by adding 50 μL of 1 M H₂SO₄ to each well. The plate was read for absorbance values at 450 nm on a microplate reader, the curves for the inhibition of the binding of the ligands to the receptors were fitted with software, and the IC₅₀ values were calculated.

[3] = molecular target: T3, BAFF (R&D Systems, 7537-BF) (UniProt Q9Y275 134-285); assay: cell-based or functional assay
[4] = molecular target: T4, human APRIL (5860-AP-010/CF, R&D Systems) (human, UniProt O75888 115-250, limits assumed); assay: cell-based or functional assay
T4 sequence (looked up): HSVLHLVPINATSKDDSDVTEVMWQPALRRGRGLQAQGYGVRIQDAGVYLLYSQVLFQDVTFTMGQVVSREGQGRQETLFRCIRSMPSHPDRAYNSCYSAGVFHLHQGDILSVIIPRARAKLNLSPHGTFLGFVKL

[5] = molecular target: T4, human APRIL (5860-AP-010/CF, R&D …); assay: ELISA, APRIL coated
[6] = molecular target: T5, IL-12/23 p40 (Sino biological, 10052-H08H) (UniProt P29460 23-328); assay: ELISA, IL-12/23 p40 coated
T5 construct: Bought protein
T5 sequence (looked up): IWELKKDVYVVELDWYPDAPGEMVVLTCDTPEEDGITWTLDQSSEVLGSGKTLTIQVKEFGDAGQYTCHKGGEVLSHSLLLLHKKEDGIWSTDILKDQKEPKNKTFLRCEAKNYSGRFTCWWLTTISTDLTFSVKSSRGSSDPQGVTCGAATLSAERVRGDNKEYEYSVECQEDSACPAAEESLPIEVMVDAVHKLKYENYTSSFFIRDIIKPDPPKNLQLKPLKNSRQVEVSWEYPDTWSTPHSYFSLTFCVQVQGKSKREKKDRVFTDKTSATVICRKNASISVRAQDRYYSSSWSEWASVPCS

[7] = molecular target: T6, cynomolgus monkey BAFF (BAF-CM412B, Kactus) (cynomolgus monkey, UniProt A0A2K5V2X4 134-285); assay: SPR (Biacore), sample captured on Protein A, antigen flowed, 1:1 fit
T6 construct: Bought protein
Description: (§2) A certain amount of test sample was subjected to affinity capture by a biosensor chip Protein A (GE, 29127556), then antigens at a series of concentration gradients were allowed to flow on the surface of the chip. The reaction signals were detected in real time by using Biacore (GE, 8K) to obtain association and dissociation curves. After the dissociation was completed for each cycle, the biochip was washed and regenerated with a 10 mM glycine-hydrochloric acid solution at pH 1.5 (GE, BR-1003-54). The experimental data were fitted using BIAevaluation version 4.1, GE software with a 1:1 model to obtain affinity values. The related antigen proteins used in this assay are as follows: human IL-23 (CT048-H08H, Sino biological), human IL-12 (CT050-H08H, Sino biological), human BAFF (10056-HNCH, Sino biological), human APRIL (5860-AP-010/CF, R&D Systems), cynomolgus monkey p40 (10215-CL, R&D Systems), cynomolgus monkey BAFF (BAF-CM412B, Kactus), cynomolgus monkey APRIL (APR-CM410B, Kactus), mouse BAFF (BAF-M521y, Acro Biosystems), and mouse APRIL (7907-AP/CF, R&D Systems).

[8] = molecular target: T7, mouse BAFF (BAF-M521y, Acro Biosystems) (mouse, UniProt Q9WU72 127-309); assay: as above
T7 construct: Bought protein
Description: as §2

[9] = molecular target: T2, human BAFF (10056-HNCH, Sino biological); assay: as above
Description: as §2

[10] = molecular target: T2, human BAFF (10056-HNCH, Sino biological); assay: competition ELISA: BAFF-R coated on the plate, biotin-labelled BAFF at a fixed concentration pre-incubated with the diluted sample, streptavidin-HRP, OD450 (blocked ligand-receptor pair: BAFF/BAFF-R)
Description: as §1, with “100 μL of TMB chromogenic substrate (KPL, 5120-0077) was added to each well, and the plate was incubated at room temperature for 10-15 min. The reaction was stopped by adding 50 μL of 1 M H₂SO₄ to each well.” left out, “calculated. […]” for “calculated.”

[11] = molecular target: T3, BAFF (R&D Systems, 7537-BF); assay: cell-based or functional assay; remark: listed apart in the source
[12] = molecular target: T2, human BAFF (10056-HNCH, Sino biological); assay: competition ELISA: biotin-labeled BAFF to coated BCMA
Description: as §1, with “100 μL of TMB chromogenic substrate (KPL, 5120-0077) was added to each well, and the plate was incubated at room temperature for 10-15 min. The reaction was stopped by adding 50 μL of 1 M H₂SO₄ to each well.” left out, “calculated. […]” for “calculated.”

[13] = molecular target: T2, human BAFF (10056-HNCH, Sino biological); assay: competition ELISA: biotin-labeled BAFF to coated TACI
Description: as §1, with “100 μL of TMB chromogenic substrate (KPL, 5120-0077) was added to each well, and the plate was incubated at room temperature for 10-15 min. The reaction was stopped by adding 50 μL of 1 M H₂SO₄ to each well.” left out, “calculated. […]” for “calculated.”

B1: TACI-9-15Fc8 fusion protein (Fc fusion)
chain: STSCREEQGEFYDHLLRDCISCASICGQHPKQCAAFCEEPKSSDKTHTCPPCPAPEAEGAPSVFLFPPKPKDTLMISRTPEVTCVVVDVSHEDPEVKFNWYVDGVEVHNAKTKPREEQYNSTYRVVSVLTVLHQDWLNGKEYKCKVSNKALPSSIEKTISKAKGQPREPQVYTLPPSRDELTKNQVSLTCLVKGFYPSDIAVEWESNGQPENNYKTTPPVLDSDGSFFLYSKLTVDKSRWQQGNVFSCSVMHEALHNHYTQKSLSLSPGGGGSSTSCREEQGEFYDHLLRDCISCASICGQHPKQCAAFCESK
notes: Full-length chain
EC50 [1]: 10.5 nM
IC50 [2]: 1.56 nM
IC50 (nM) for the inhibition of the BAFF-induced B cell proliferation [3]: 0.0291 nM
IC50 (nM) for the inhibition of the APRIL-induced B cell proliferation [4]: 0.00477 nM

B2: TACI-9-15Fc7 fusion protein (Fc fusion)
chain: B1 chain with S312Q
notes: Full-length chain
EC50 [1]: 8.95 nM
IC50 [2]: 1.38 nM
IC50 (nM) for the inhibition of the BAFF-induced B cell proliferation [3]: 0.0244 nM
IC50 (nM) for the inhibition of the APRIL-induced B cell proliferation [4]: 0.00481 nM

B3: TACI-9-15Fc9 fusion protein (Fc fusion)
chain: B1 chain with K313S
notes: Full-length chain
EC50 [1]: 8.94 nM
IC50 [2]: 1.19 nM
IC50 (nM) for the inhibition of the BAFF-induced B cell proliferation [3]: 0.0262 nM
IC50 (nM) for the inhibition of the APRIL-induced B cell proliferation [4]: 0.00947 nM

B4: Belimumab (antibody, human IgG1, lambda, V domains shown)
VH: QVQLQQSGAEVKKPGSSVRVSCKASGGTFNNNAINWVRQAPGQGLEWMGGIIPMFGTAKYSQNFQGRVAITADESTGTASMELSSLRSEDTAVYYCARSRDLLLFPHHALSPWGRGTMVTVSS
VL: SSELTQDPAVSVALGQTVRVTCQGDSLRSYYASWYQQKPGQAPVLVIYGKNNRPSGIPDRFSGSSSGNTASLTITGAQAEDEADYYCSSRDSSGNHWVFGGGTELTVLG
notes: Marketed control antibody; also called anti-BAFF antibody belimumab
binding result [5]: no binding
binding result [6]: no binding
Kd [7]: 0.459 nM
koff [7]: 0.000221 s⁻¹
kon [7]: 481000 M⁻¹ s⁻¹
Kd [8]: 0.104 nM
koff [8]: 0.000144 s⁻¹
kon [8]: 1.38e+06 M⁻¹ s⁻¹
Kd [9]: 0.105 nM
koff [9]: 0.000171 s⁻¹
kon [9]: 1.64e+06 M⁻¹ s⁻¹
IC50 (read off the curve) [10]: ~0.7 nM
IC50 (nM) for the inhibition of the BAFF-induced B cell proliferation [11]: 0.146 nM
IC50 [12]: 0.458 nM
IC50 [13]: 0.567 nM
